This passage reports binding result and Kd results from publication doi:10.1101/2024.02.16.579611 (bioRxiv, 2024).

The Kd is the equilibrium constant for the complex coming apart.

The series “crystal structure” concerns the molecule itself. Nature of the series: crystal structure.
Series [1] addresses T1, KorB (wild type), C-terminally His-tagged (plasmid RK2, UniProt P07674 1-358).
T1 sequence: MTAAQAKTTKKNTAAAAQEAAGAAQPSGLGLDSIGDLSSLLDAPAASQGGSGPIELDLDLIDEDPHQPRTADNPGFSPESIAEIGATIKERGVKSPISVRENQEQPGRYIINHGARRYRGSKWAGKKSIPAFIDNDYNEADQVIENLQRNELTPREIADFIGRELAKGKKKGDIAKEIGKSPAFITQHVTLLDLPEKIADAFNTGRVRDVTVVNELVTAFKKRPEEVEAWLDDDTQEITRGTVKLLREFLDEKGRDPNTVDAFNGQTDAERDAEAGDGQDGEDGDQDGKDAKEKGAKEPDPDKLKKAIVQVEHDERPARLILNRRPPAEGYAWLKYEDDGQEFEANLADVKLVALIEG
Briefly: ITC. Background: Isothermal titration calorimetry measures the heat released or taken up as one component is titrated into another.

B1: KorA (wild type), C-terminally His-tagged (natural protein)
chain: MKKRLTESQFQEAIQGLEVGQQTIEIARGVLVDGKPQATFATSLGLTRGAVSQAVHRVWAAFEDKNLPEGYARVTAVLPEHQAYIVRKWEADAKKKQETKR
Consider B1, for which, in “crystal structure”, the binding result is “binds”. In series [1], the dissociation constant Kd worked out at 4.2 ± 0.5 µM.
